Measured values as given in article PMC13570301.
Numbering of substitutions follows the chain as printed. In names and notes the source's numbering stands.

T1: CHIP G33S, recombinant, C-terminal His tag, Q9UNE7-1
T1 chain: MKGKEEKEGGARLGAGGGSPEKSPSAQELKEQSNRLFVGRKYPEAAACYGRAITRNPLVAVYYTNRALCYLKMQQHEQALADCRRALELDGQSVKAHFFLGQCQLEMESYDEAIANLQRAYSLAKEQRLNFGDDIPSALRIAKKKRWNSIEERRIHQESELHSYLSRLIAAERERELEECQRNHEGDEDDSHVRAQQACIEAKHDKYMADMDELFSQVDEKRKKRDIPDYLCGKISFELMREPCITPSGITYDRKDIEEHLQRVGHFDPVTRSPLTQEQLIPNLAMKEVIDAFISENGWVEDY

T2: CHIP-myc wild type (pcDNA3-CHIP-myc) (human), Q9UNE7
T2 chain: T1 chain with S33G

B1: CHIP wild type, recombinant, C-terminal His tag (pET30-CHIP-His), Q9UNE7-1 G33S (protein)
chain: T1 chain
B2: CHIP-myc wild type (pcDNA3-CHIP-myc), Q9UNE7-1 1-303 (enzyme)
chain: T1 chain with S33G

Tests used:
[1] = biological target: T1, CHIP G33S, recombinant, C-terminal His …; assay: mass photometry; conditions: chain shown with the change, self-association, fraction weighted by number of monomeric subunits, n = 3, read off a plot
[2] = biological target: T2, CHIP-myc wild type (pcDNA3-CHIP-myc) …; assay: native gel or EMSA; Blue native PAGE and immunoblot of lysates (Native PAGE sample buffer, 1% digitonin) of transfected COS-7 cells kept at 37 °C or heat-shocked at 42 °C for 2 h; self-association; conditions: remark: other sources report otherwise

| Binder | other: fraction of total CHIP in octamer (8n) ([1]; parent: est. 0.12) | other: fraction of total CHIP in hexamer (6n) ([1]; parent: est. 0.23) | other: fraction of total CHIP in dimer (2n) ([1]; parent: est. 0.32) | other: fraction of total CHIP in tetramer (4n) ([1]; parent: est. 0.33) | stoichiometry N [2] |
| --- | --- | --- | --- | --- | --- |
| B1 | 0.13 | 0.2 | 0.38 | 0.3 | – |
| B2 | – | – | – | – | 2 |
